Results from patent US20200071711, “MODULAR CONSTRUCTION OF SYNTHETIC GENE CIRCUITS IN MAMMALIAN CELLS USING MATHEMATICAL MODELING OF CLOSED LOOP TRANSCRIPTIONAL REPRESSORS” (Tsinghua University, published 2020).

What was measured:
Assay in all cases: cell_activity; HEK293, two sites flanking CMVmini
Conditions in all cases: tags: EYFP-2A upstream, SV40 NLS
TALER17 = molecular target: T1, TALER17 (synthetic, UniProt B2SU53 SEQ:1-1010)
T1 chain: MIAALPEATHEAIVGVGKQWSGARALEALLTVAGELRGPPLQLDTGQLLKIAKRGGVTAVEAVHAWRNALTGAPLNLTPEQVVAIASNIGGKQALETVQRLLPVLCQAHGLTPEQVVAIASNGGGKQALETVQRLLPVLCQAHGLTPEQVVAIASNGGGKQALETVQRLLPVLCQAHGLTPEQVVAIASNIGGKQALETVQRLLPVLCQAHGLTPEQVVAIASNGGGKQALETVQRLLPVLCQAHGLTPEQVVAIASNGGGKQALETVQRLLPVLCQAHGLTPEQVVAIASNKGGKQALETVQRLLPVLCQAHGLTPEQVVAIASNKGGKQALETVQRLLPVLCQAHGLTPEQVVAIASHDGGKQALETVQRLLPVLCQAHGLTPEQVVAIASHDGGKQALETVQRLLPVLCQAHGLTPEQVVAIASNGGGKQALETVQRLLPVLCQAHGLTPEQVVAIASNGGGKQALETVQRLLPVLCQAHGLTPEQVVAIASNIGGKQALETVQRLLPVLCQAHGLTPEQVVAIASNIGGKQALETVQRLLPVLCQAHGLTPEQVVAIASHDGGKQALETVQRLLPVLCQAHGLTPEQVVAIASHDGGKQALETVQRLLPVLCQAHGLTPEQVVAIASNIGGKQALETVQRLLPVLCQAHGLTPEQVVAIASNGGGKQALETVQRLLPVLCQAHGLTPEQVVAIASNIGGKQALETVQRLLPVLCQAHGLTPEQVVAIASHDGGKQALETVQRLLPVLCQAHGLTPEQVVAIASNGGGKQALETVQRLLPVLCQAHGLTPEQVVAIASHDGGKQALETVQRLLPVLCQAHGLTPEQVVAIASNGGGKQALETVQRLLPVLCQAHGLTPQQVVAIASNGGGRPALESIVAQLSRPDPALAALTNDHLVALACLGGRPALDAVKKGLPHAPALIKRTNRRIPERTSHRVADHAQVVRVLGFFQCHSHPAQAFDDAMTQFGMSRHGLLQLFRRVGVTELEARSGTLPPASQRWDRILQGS

TALER18 = molecular target: T2, TALER18 (synthetic, UniProt B2SU53 SEQ:1-1010)
T2 chain: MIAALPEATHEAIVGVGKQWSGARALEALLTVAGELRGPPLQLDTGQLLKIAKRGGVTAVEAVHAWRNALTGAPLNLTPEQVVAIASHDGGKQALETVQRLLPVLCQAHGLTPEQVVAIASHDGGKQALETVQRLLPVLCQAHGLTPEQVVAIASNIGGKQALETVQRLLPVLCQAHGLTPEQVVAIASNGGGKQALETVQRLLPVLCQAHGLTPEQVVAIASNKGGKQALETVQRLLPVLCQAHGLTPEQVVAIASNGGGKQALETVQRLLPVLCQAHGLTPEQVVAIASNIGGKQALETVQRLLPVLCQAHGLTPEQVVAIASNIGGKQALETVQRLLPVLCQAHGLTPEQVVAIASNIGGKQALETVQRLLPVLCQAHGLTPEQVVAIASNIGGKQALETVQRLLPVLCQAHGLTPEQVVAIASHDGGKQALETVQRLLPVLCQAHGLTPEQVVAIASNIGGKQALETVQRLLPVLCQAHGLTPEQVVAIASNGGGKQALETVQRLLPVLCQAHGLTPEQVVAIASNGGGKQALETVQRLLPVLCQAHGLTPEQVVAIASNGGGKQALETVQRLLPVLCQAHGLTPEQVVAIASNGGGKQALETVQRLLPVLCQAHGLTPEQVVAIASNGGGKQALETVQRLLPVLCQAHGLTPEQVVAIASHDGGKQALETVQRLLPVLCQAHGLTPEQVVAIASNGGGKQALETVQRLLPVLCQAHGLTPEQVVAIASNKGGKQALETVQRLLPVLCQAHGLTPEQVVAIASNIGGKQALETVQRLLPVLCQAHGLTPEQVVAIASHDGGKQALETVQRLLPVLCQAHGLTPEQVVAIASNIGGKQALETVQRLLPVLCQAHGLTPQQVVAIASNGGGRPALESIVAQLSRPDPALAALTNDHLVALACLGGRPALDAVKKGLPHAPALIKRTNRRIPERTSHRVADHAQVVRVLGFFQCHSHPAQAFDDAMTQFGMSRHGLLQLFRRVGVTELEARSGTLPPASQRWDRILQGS

TALER20 = molecular target: T3, TALER20 (synthetic, UniProt B2SU53 SEQ:1-1010)
T3 chain: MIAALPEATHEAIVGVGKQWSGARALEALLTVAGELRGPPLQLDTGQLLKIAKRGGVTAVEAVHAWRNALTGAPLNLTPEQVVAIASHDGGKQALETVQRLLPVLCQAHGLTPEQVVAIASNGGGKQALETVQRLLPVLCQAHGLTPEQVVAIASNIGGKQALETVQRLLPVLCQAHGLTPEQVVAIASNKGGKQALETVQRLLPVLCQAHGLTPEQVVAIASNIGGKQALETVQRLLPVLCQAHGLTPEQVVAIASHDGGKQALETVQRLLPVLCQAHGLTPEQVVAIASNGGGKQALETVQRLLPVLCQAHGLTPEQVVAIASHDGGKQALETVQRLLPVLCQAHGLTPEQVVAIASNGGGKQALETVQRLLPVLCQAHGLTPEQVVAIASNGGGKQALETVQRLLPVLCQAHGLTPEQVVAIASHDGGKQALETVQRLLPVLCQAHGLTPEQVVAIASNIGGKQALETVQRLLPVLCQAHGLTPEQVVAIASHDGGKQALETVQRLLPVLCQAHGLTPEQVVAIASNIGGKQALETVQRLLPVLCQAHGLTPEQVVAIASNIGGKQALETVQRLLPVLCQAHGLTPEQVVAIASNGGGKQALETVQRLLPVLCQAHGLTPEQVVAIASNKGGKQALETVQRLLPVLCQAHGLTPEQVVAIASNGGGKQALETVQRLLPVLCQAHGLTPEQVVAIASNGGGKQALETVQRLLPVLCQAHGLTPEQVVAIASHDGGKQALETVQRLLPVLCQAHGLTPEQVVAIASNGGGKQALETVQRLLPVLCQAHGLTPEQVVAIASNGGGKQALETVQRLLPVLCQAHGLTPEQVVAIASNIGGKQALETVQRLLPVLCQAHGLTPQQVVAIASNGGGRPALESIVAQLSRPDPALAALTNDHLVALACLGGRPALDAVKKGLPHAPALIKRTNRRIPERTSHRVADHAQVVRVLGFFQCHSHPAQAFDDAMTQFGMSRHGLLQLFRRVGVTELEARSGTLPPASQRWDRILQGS

TALER15 = molecular target: T4, TALER15 (synthetic, UniProt B2SU53 SEQ:1-1010)
T4 chain: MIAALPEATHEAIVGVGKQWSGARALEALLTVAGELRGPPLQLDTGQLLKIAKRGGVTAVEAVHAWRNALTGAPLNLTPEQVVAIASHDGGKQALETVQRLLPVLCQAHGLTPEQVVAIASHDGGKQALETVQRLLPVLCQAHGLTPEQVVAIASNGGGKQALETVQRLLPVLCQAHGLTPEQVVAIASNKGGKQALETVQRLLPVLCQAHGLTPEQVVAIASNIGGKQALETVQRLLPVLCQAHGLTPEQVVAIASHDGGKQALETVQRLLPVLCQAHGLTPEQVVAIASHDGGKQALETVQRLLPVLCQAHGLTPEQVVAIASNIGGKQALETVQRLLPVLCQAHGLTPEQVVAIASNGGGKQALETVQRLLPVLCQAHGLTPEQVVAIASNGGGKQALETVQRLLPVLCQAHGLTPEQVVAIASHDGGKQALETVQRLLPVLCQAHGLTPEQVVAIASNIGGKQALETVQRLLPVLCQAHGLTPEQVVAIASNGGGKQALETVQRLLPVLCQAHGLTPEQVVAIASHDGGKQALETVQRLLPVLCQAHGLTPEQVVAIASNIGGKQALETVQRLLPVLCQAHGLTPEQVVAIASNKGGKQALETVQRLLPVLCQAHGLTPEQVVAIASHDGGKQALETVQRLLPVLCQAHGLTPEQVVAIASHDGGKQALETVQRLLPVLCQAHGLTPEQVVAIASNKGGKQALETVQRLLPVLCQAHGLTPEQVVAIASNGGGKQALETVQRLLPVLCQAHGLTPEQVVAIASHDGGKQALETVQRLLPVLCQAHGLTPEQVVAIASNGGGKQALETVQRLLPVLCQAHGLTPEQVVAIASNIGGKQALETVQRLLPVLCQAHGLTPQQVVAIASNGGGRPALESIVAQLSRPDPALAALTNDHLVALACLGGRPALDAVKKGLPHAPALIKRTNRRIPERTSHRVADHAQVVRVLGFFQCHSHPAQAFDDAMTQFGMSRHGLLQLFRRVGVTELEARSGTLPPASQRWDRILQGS

TALER12 = molecular target: T5, TALER12 (synthetic, UniProt Q56830 SEQ:262-1344)
T5 chain: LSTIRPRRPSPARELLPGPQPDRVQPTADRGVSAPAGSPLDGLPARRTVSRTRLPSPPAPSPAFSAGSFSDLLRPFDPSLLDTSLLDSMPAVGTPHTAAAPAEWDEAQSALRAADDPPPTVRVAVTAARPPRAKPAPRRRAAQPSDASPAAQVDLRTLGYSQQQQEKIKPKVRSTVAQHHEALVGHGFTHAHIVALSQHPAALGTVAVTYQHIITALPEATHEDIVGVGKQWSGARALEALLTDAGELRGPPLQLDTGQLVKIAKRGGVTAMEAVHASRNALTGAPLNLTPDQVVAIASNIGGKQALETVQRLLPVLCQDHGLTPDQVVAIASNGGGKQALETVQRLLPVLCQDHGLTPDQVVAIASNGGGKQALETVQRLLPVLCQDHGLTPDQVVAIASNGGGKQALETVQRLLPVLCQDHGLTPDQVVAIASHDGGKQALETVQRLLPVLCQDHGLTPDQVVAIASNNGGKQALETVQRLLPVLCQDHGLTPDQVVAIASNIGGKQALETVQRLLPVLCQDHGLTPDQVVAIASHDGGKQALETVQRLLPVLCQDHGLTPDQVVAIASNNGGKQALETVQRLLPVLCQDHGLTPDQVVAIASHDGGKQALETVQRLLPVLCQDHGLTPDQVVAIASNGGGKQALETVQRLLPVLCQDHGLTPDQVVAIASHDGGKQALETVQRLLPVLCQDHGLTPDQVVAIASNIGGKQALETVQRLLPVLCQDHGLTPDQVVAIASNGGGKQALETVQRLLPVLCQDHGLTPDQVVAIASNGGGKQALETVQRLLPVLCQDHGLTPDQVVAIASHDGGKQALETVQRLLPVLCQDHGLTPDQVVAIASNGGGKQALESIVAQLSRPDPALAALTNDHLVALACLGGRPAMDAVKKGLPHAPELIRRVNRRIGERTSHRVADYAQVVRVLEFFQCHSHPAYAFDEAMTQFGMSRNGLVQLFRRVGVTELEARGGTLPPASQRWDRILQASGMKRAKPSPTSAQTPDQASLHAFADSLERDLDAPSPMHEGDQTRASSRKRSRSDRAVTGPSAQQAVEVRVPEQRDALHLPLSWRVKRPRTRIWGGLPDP

B1: T17 site (dsDNA)
DNA 1: TATTATTGGCCTTAACCATACTCTT
DNA 2: AAGAGTATGGTTAAGGCCAATAATA
binding signal (TALER17): 195 fold repression

B2: T18 site (dsDNA)
DNA 1: TCCATGTAAAACATTTTTCTGACAT
DNA 2: ATGTCAGAAAAATGTTTTACATGGA
binding signal (TALER18): 18.5 fold repression

B3: T20 site (dsDNA)
DNA 1: TCTAGACTCTTCACAATGTTCTTAT
DNA 2: ATAAGAACATTGTGAAGAGTCTAGA
binding signal (TALER20): 12.3 fold repression

B4: T15 site (dsDNA)
DNA 1: TCCTGACCATTCATCAGCCGTCTAT
DNA 2: ATAGACGGCTGATGAATGGTCAGGA
binding signal (TALER15): 13.7 fold repression

B5: T12 site (dsDNA)
DNA 1: TATTTCGACGCTCATTCT
DNA 2: AGAATGAGCGTCGAAATA
binding signal (TALER12): 1220 fold repression
